Data published in article PMC6544321.

Tests used:
[1] = biological target: A. thaliana Z-B dimer (AtH2A.Z/AtH2B dimer) (Arabidopsis thaliana); assay: ITC; AtChz1b (253-463) with A. thaliana histone dimers in 0.1 M NaCl
[2] = biological target: A. thaliana Z-B dimer (AtH2A.Z/AtH2B dimer) (Arabidopsis thaliana); assay: ITC; AtChz1b (253-463) with A. thaliana histone dimers in 0.25 M NaCl
[3] = biological target: yeast single chain H2A-H2B (yeast); assay: ITC; 0.2 M NaCl (Table 1); Swc2-Z or Chz1-M injected into single-chain histone dimers; otherwise as the ITC methods (25°C, 20 mM MES pH 6.0)
[4] = biological target: single chain H2A-H2B with H2A P50A/N91G (yeast); assay: as above
[5] = biological target: yeast single-chain H2A.Z-H2B (yeast); assay: as above
[6] = biological target: single-chain H2A.Z-H2B with H2A.Z A57P/G98N (yeast); assay: as above

| Kd [1] [µM] | Kd [2] [µM] | stoichiometry N [3] [sites] | Kd [4] [µM] | stoichiometry N [4] [sites] | Kd [5] [µM] | stoichiometry N [5] [sites] | Kd [6] [µM] | stoichiometry N [6] [sites] | Substance |
| --- | --- | --- | --- | --- | --- | --- | --- | --- | --- |
| 0.05 | 19.9 |  |  |  |  |  |  |  | AtChz1b (residues 253–463) (domain or fragment) |
|  |  | 0.9 | 0.17 | 1 | 0.04 | 1.1 | 0.04 | 0.8 | Swc2-Z, the 1–136 segment of the Swc2 subunit of the SWR1 complex (domain or fragment) |
